The record followed here is patent US9618524B2, “Method, composition, isolation and identification of a plaque particle and related biomarker” (Plaxgen Inc., priority 2012, dated 2017).

B1: Ig alpha-2 chain C region (protein)
chain: ASPTSPKVFPLSLDSTPQDGNVVVACLVQGFFPQEPLSVTWSESGQNVTARNFPPSQDASGDLYTTSSQLTLPATQCPDGKSVTCHVKHYTNSSQDVTVPCRVPPPPPCCHPRLSLHRPALEDLLLGSEANLTCTLTGLRDASGATFTWTPSSGKSAVQGPPERDLCGCYSVSSVLPGCAQPWNHGETFTCTAAHPELKTPLTANITKSGNTFRPEVHLLPPPSEELALNELVTLTCLARGFSPKDVLVRWLQGSQELPREKYLTWASRQEPSQGTTTYAVTSILRVAAEDWKKGETFSCMVGHEALPLAFTQKTIDRMAGKPTHINVSVVMAEADGTCY
B2: Cluster of Ig alpha-1 chain C region (protein, UniProt P01876 1-398, looked up)
Immunoglobulin heavy constant …: ASPTSPKVFPLSLCSTQPDGNVVIACLVQGFFPQEPLSVTWSESGQGVTARNFPPSQDASGDLYTTSSQLTLPATQCLAGKSVTCHVKHYTNPSQDVTVPCPVPSTPPTPSPSTPPTPSPSCCHPRLSLHRPALEDLLLGSEANLTCTLTGLRDASGVTFTWTPSSGKSAVQGPPERDLCGCYSVSSVLPGCAEPWNHGKTFTCTAAYPESKTPLTATLSKSGNTFRPEVHLLPPPSEELALNELVTLTCLARGFSPKDVLVRWLQGSQELPREKYLTWASRQEPSQGTTTFAVTSILRVAAEDWKKGDTFSCMVGHEALPLAFTQKTIDRLADWQMPPPYVVLDLPQETLEEETPGANLWPTTITFLTLFLLSLFYSTALTVTSVRGPSGNREGPQY
B3: Catalase (protein)
chain: ADSRDPASDQMQHWKEQRAAQKADVLTTGAGNPVGDKLNVITVGPRGPLLVQDVVFTDEMAHFDRERIPERVVHAKGAGAFGYFEVTHDITKYSKAKVFEHIGKKTPIAVRFSTVAGESGSADTVRDPRGFAVKFYTEDGNWDLVGNNTPIFFIRDPILFPSFIHSQKRNPQTHLKDPDMVWDFWSLRPESLHQVSFLFSDRGIPDGHRHMNGYGSHTFKLVNANGEAVYCKFHYKTDQGIKNLSVEDAARLSQEDPDYGIRDLFNAIATGKYPSWTFYIQVMTFNQAETFPFNPFDLTKVWPHKDYPLIPVGKLVLNRNPVNYFAEVEQIAFDPSNMPPGIEASPDKMLQGRLFAYPDTHRHRLGPNYLHIPVNCPYRARVANYQRDGPMCMQDNQGGAPNYYPNSFGAPEQQPSALEHSIQYSGEVRRFNTANDDNVTQVRAFYVNVLNEEQRKRLCENIAGHLKDAQIFIQKKAVKNFTEVHPDYGSHIQALLDKYNAEKPKNAIHTFVQSGSHLAAREKANL
B4: Apolipoprotein M (protein)
chain: MFHQIWAALLYFYGIILNSIYQCPEHSQLTTLGVDGKEFPEVHLGQWYFIAGAAPTKEELATFDPVDNIVFNMAAGSAPMQLHLRATIRMKDGLCVPRKWIYHLTEGSTDLRTEGRPDMKTELFSSSCPGGIMLNETGQGYQRFLLYNRSPHPPEKCVEEFKSLTSCLDSKAFLLTPRNQEACELSNN
B5: Isoform 2 of Haptoglobin-related protein (protein)
chain: MHVCVCVCVCVYMPVCVDACMCCEAGRPAFRSFLFSLCSDLGAVISLLLWGRQLFALYSGNDVTDISDDRFPKPPEIANGYVEHLFRYQCKNYYRLRTEGDGVYTLNDKKQWINKAVGDKLPECEAVCGKPKNPANPVQRILGGHLDAKGSFPWQAKMVSHHNLTTGATLINEQWLLTTAKNLFLNHSENATAKDIAPTLTLYVGKKQLVEIEKVVLHPNYHQVDIGLIKLKQKVLVNERVMPICLPSKNYAEVGRVGYVSGWGQSDNFKLTDHLKYVMLPVADQYDCITHYEGSTCPKWKAPKSPVGVQPILNEHTFCVGMSKYQEDTCYGDAGSAFAVHDLEEDTWYAAGILSFDKSCAVAEYGVYVKVTSIQHWVQKTIAEN
B6: Vitamin D-binding protein (protein)
chain: LERGRDYEKNKVCKEFSHLGKEDFTSLSLVLYSRKFPSGTFEQVSQLVKEVVSLTEACCAEGADPDCYDTRTSALSAKSCESNSPFPVHPGTAECCTKEGLERKLCMAALKHQPQEFPTYVEPTNDEICEAFRKDPKEYANQFMWEYSTNYGQAPLSLLVSYTKSYLSMVGSCCTSASPTVCFLKERLQLKHLSLLTTLSNRVCSQYAAYGEKKSRLSNLIKLAQKVPTADLEDVLPLAEDITNILSKCCESASEDCMAKELPEHTVKLCDNLSTKNSKFEDCCQEKTAMDVFVCTYFMPAAQLPELPDVELPTNKDVCDPGNTKVMDKYTFELSRRTHLPEVFLSKVLEPTLKSLGECCDVEDSTTCFNAKGPLLKKELSSFIDKGQELCADYSENTFTEYKKKLAERLKAKLPDATPTELAKLVNKHSDFASNCCSINSPPLYCDSEIDAELKNIL
B7: Ceruloplasmin (protein)
chain: KEKHYYIGIIETTWDYASDHGEKKLISVDTEHSNIYLQNGPDRIGRLYKKALYLQYTDETFRTTIEKPVWLGFLGPIIKAETGDKVYVHLKNLASRPYTFHSHGITYYKEHEGAIYPDNTTDFQRADDKVYPGEQYTYMLLATEEQSPGEGDGNCVTRIYHSHIDAPKDIASGLIGPLIICKKDSLDKEKEKHIDREFVVMFSVVDENFSWYLEDNIKTYCSEPEKVDKDNEDFQESNRMYSVNGYTFGSLPGLSMCAEDRVKWYLFGMGNEVDVHAAFFHGQALTNKNYRIDTINLFPATLFDAYMVAQNPGEWMLSCQNLNHLKAGLQAFFQVQECNKSSSKDNIRGKHVRHYYIAAEEIIWNYAPSGIDIFTKENLTAPGSDSAVFFEQGTTRIGGSYKKLVYREYTDASFTNRKERGPEEEHLGILGPVIWAEVGDTIRVTFHNKGAYPLSIEPIGVRFNKNNEGTYYSPNYNPQSRSVPPSASHVAPTETFTYEWTVPKEVGPTNADPVCLAKMYYSAVEPTKDIFTGLIGPMKICKKGSLHANGRQKDVDKEFYLFPTVFDENESLLLEDNIRMFTTAPDQVDKEDEDFQESNKMHSMNGFMYGNQPGLTMCKGDSVVWYLFSAGNEADVHGIYFSGNTYLWRGERRDTANLFPQTSLTLHMWPDTEGTFNVECLTTDHYTGGMKQKYTVNQCRRQSEDSTFYLGERTYYIAAVEVEWDYSPQREWEKELHHLQEQNVSNAFLDKGEFYIGSKYKKVVYRQYTDSTFRVPVERKAEEEHLGILGPQLHADVGDKVKIIFKNMATRPYSIHAHGVQTESSTVTPTLPGETLTYVWKIPERSGAGTEDSACIPWAYYSTVDQVKDLYSGLIGPLIVCRRPYLKVFNPRRKLEFALLFLVFDENESWYLDDNIKTYSDHPEKVNKDDEEFIESNKMHAINGRMFGNLQGLTMHVGDEVNWYLMGMGNEIDLHTVHFHGHSFQYKHRGVYSSDVFDIFPGTYQTLEMFPRTPGIWLLHCHVTDHIHAGMETTYTVLQNEDTKSG

The first experiment relates to Tau plaque particles. Put plainly: Mass spectroscopy proteomics, semi-quantitative binding affinity of serum proteins (plaqueproteome, Table 2). Further details: species or system human. The following applies: higher number = stronger affinity. Summed up:
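Synthetic Tau-74 and Tau-275 peptides (1 mg/mL PBS, 37° C, 2 h) aggregated; 30 μg aggregates incubated with 50% serum/plasma 1 h at 37° C, stained with Thioflavin S, and plaque particles sorted by flow cytometry. Bound proteins trypsin-digested and identified by MS/MS against human UniProt.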
For the molecule B1, the “Semi-quantitative analysis of proteins binding to different plaque particles: Tau” value turned out to be 10.

Take B2: the “Semi-quantitative analysis of proteins binding to different plaque particles: Tau” value was determined as 12.

Turning to B3, the “Semi-quantitative analysis of proteins binding to different plaque particles: Tau” value is on record as 0.

For B4, the “Semi-quantitative analysis of proteins binding to different plaque particles: Tau” value is 0.

In the case of B5, the “Semi-quantitative analysis of proteins binding to different plaque particles: Tau” value came out at 11.

Regarding B6, the “Semi-quantitative analysis of proteins binding to different plaque particles: Tau” value is 19.

Take B7: the “Semi-quantitative analysis of proteins binding to different plaque particles: Tau” value is recorded as 20.

The target of another experiment is T1, Abeta-42 plaque particles (Homo sapiens, UniProt P05067).
T1 construct: Abeta 1-42
The description is as above. The following applies: higher number = stronger affinity. Summed up:
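AD patient serum or plasma (50% in PBS) was incubated with Abeta-42 aggregates (30 μg) for 1 h at 37 °C, then stained with Thioflavin S for 30 min. Labeled particles were FACS-sorted, trypsin/Lys-C digested overnight and analyzed by MS/MS. Sequest searched human UniProt; Scaffold/Protein Prophet validated the identifications.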
Consider B1, for which the “Semi-quantitative analysis of proteins binding to different plaque particles: Abeta-42” value is 7.

Turning to B2, the “Semi-quantitative analysis of proteins binding to different plaque particles: Abeta-42” value came out at 9.

As to B3, the “Semi-quantitative analysis of proteins binding to different plaque particles: Abeta-42” value worked out at 12.

In the case of B4, the “Semi-quantitative analysis of proteins binding to different plaque particles: Abeta-42” value was found to be 18.

As for B5, the “Semi-quantitative analysis of proteins binding to different plaque particles: Abeta-42” value was 11.

With B6, the “Semi-quantitative analysis of proteins binding to different plaque particles: Abeta-42” value is 12.

Regarding B7, the “Semi-quantitative analysis of proteins binding to different plaque particles: Abeta-42” value is given as 9.

The next experiment concerns Low density cholesterol (Chl small) plaque particles. Described as above. The settings on record: higher number = stronger affinity. Details: species or system human. The essentials: (§1)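 Read-out is MS/MS protein identification (Sequest, strict trypsin, 20 ppm parent tolerance; Scaffold probabilities) of serum proteins bound to flow-sorted cholesterol plaque particles. These particles formed when 50% atherosclerotic serum was incubated with 30 μg cholesterol aggregates for 1 hr at 37° C.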
As to B1, the “Semi-quantitative analysis of proteins binding to different plaque particles: Chl small” value is reported as 6.

As for B2, the “Semi-quantitative analysis of proteins binding to different plaque particles: Chl small” value was 9.

Turning to B3, the “Semi-quantitative analysis of proteins binding to different plaque particles: Chl small” value came to 0.

Regarding B4, the “Semi-quantitative analysis of proteins binding to different plaque particles: Chl small” value turned out to be 0.

As to B5, the “Semi-quantitative analysis of proteins binding to different plaque particles: Chl small” value stood at 12.

With B6, the “Semi-quantitative analysis of proteins binding to different plaque particles: Chl small” value was 18.

On to B7, for which the “Semi-quantitative analysis of proteins binding to different plaque particles: Chl small” value came out at 22.

The subject of the next experiment is High Density cholesterol (Chl Large) plaque particles. The description is as above. Details: species or system human. The settings on record: higher number = stronger affinity. Summed up:
as §1
With B1, the “Semi-quantitative analysis of proteins binding to different plaque particles: Chl Large” value was found to be 9.

B2: the “Semi-quantitative analysis of proteins binding to different plaque particles: Chl Large” value was determined as 10.

As for B3, the “Semi-quantitative analysis of proteins binding to different plaque particles: Chl Large” value came to 0.

Regarding B4, the “Semi-quantitative analysis of proteins binding to different plaque particles: Chl Large” value is on record as 0.

Take B5: the “Semi-quantitative analysis of proteins binding to different plaque particles: Chl Large” value is reported as 15.

Regarding B6, the “Semi-quantitative analysis of proteins binding to different plaque particles: Chl Large” value was determined as 21.

Consider B7, for which the “Semi-quantitative analysis of proteins binding to different plaque particles: Chl Large” value is on record as 20.

In the next experiment the target is T2, alpha-synuclein plaque particles (Homo sapiens, UniProt P37840).
T2 construct: 140 amino acids polypeptide
The experiment is described as above. The settings on record: higher number = stronger affinity. Summed up: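 AD-subject plasma or serum (800 μL of 50%) mixed with 30 μg preformed alpha-synuclein aggregates for 1 h at 37 °C; Thioflavin S-positive particles isolated by flow sorting. After reduction, acrylamide alkylation and overnight tryptic digestion, serum proteins identified by MS/MS with Sequest and Scaffold.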
Turning to B1, the “Semi-quantitative analysis of proteins binding to different plaque particles: Synuclein” value worked out at 10.

Turning to B2, the “Semi-quantitative analysis of proteins binding to different plaque particles: Synuclein” value worked out at 12.

In the case of B3, the “Semi-quantitative analysis of proteins binding to different plaque particles: Synuclein” value turned out to be 0.

As for B4, the “Semi-quantitative analysis of proteins binding to different plaque particles: Synuclein” value is reported as 0.

In the case of B5, the “Semi-quantitative analysis of proteins binding to different plaque particles: Synuclein” value stood at 14.

Regarding B6, the “Semi-quantitative analysis of proteins binding to different plaque particles: Synuclein” value is 17.

As for B7, the “Semi-quantitative analysis of proteins binding to different plaque particles: Synuclein” value turned out to be 21.
